One may read the Kd as the equilibrium constant for the complex coming apart. Low values mean a tighter complex, high ones a looser complex.

The target in experiment [1] is T1, recombinant his-S-tagged pro-domain of human BDNF (residues Ala1-Arg110), from pET-30 Xa/LIC, E. coli (human) (UniProt P23560).
T1 sequence: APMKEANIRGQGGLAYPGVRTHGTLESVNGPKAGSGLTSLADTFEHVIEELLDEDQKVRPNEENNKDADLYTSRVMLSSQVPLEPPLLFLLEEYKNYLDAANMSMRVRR
Description: SPR competition, 390 nM Sortilin with 300 uM peptide over immobilised pro-dom-BDNF.

The target in experiment [2] is purified human Sortilin extracellular domain (produced in stably transfected CHO cells) (human) (UniProt Q99523). Description: SPR (Biacore), immobilised Sortilin extracellular domain (94 fmol/mm2); GST-pro-domain of proBDNF, upper panel of FIG. 7. (In SPR one partner is held on a chip, and binding of the other changes the refractive index at the surface.)
Sequence of purified human Sortilin extracellular domain (produced in stably transfected CHO cells) (human) (Q99523 78-755 V650M limits assumed): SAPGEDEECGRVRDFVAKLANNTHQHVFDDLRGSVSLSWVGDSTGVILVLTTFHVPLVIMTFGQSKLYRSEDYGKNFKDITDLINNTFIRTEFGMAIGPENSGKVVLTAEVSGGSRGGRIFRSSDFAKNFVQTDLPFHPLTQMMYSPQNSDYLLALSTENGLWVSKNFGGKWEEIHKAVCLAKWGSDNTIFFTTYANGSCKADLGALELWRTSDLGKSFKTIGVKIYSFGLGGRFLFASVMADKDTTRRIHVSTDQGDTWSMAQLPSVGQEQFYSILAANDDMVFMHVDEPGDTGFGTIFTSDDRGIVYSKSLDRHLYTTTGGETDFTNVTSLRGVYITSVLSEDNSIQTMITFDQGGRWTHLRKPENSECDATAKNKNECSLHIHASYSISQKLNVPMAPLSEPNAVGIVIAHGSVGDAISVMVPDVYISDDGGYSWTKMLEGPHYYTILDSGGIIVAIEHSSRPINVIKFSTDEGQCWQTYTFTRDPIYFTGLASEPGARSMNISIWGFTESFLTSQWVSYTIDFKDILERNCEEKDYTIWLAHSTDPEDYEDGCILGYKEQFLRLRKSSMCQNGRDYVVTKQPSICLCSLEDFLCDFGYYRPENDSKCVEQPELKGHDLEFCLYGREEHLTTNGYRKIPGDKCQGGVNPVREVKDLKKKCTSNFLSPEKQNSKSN

As to RSSDFAKNFVQTDLPF [sortilin peptide … (synthetic, soluble)], the percent inhibition of Sortilin binding to pro-dom-BDNF in experiment [1] came to 66%.

B1: pro-domain of human BDNF fused to GST (glutathione S-transferase), produced in E. coli (protein, not shown: a dimerising Fc or GST)
chain: T1 sequence
On to B1, for which the Kd in experiment [2] was determined as 58 nM.
